According to the supplement of paper PMC9170038:

Tested on: MS2 coat protein
Test: apparent KD of MS2 coat protein; designed switch direction (-1 OFF switch, 1 ON switch): -1; higher = weaker reporter binding
How it was run: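 Designed RNA switches with common flanks were made on Illumina chips by stalled E. coli RNA polymerase. Titration with SNAP-549-labelled MS2 coat protein doubled from 0.7 or 1.5 nM up to 3 µM. Apparent KD is each design's median over clusters after curve-fitting normalised fluorescence.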

[1] = Eterna round: R95, input ligand: microRNA oligo, concentration not stated
[2] = Eterna round: R95, input ligand: FMN 200 uM
[3] = Eterna round: R95, input ligand: none
[4] = input ligand: microRNA oligo, concentration not stated

Sequence | apparent KD of MS2 coat protein [1] | apparent KD of MS2 coat protein (input ligand: FMN 200 uM) | apparent KD of MS2 coat protein (input ligand: none) | apparent KD of MS2 coat protein [2] | apparent KD of MS2 coat protein [3] | apparent KD of MS2 coat protein [4]
GCCAGAGCAGGAUAUUCAAUAUUCCACAUGAGGAUCACCCAUGUCCUGCGAAAGCAGGAGGGAGAAGGGCUCUGGC [Mat - Exclusion 5 - Eli mod - D91] (puzzle: Exclusion 5) | 56.2 nM |  |  |  |  | 
GGAUCGAGAGUGAGGAUAUGCUGGUCCUUGGAUCAGCAGAAGGCACAUGAGGAUCACCCAUGUGAUUCCGAUCC [Mat - Exclusion 4 - Eli Mod - D39] (Eterna round: R97, puzzle: Brourd's mod of Exclusion 4) |  | 399 nM | 40.6 nM |  |  | 
UCCACGUAAGGAUAUGGUCAUUGUGACUUGAGGAUCACCCAAGUUGUGAGCUUCCGUCACCCAGAAGGUGCAUGGU [Oratin] (Eterna round: R97, puzzle: Exclusion 5) |  | 216 nM | 99.9 nM |  |  | 
GGAGGAGAGGUUAGGAUAUCCUCCUCGAAAGAGGAGGAGAAGGAACAUGAGGAUCACCCAUGUAAGGAAGGAGG [AK-MS2ROC-r4-Bmoexclusion4-10] (Eterna round: R97, puzzle: Brourd's mod of Exclusion 4) |  | 27.1 nM | 37 nM |  |  | 
CCGGAAAAGGAGGAUAUAGGAGUCGAUAGACACCUAGAAGGCCUGACAUGAGGAUCACCCAUGUGUCCUACCGG [Fiskers Ex 6 - 92] (puzzle: Exclusion 6) | 17.9 nM |  |  | 38.3 nM | 16.8 nM | 
GGGUGCAGGCUGAGGUCCUACAUGAGGAUCACCCAUGUGGUCCGGUGGCGUGGGUCGCCGGACUUGGCUCGUCUUGU [salish99_S_TOV1_R5_013] (Eterna round: R97, puzzle: Sensor, turn-off variant 1) |  | 39.2 nM | 45.8 nM |  |  | 
GGCGAAGUAGGAUAUACAUGAGGAUCACCCAUGUUACCUGAUGGCGUAGGUCUUCUAUGUAGAAGGGCUACGCC [jl-ex3-4.36 ViennaUCT mod] (Eterna round: R97, puzzle: Exclusion 3) |  | 16.9 nM | 16.9 nM |  |  | 
UACAUGAGGAUCACCCAUGUUUUGUCGUGUAUGGUAUUUAUCUAGGAUAUCAUUUUAUUUAGCUAUGAGAAGGAGAAUAUUAAU [JMF's solution 94] (Eterna round: R96, puzzle: Exclusion NG 3) |  | 32.3 nM | 31.2 nM |  |  | 20.5 nM
UUCGUGCAGCUUUGCUGUACGCGUACAUGAGGAUCACCCAUGUAGGAUAUGGUAGGCUUUGCUUACUAGAAGGAUAUAGUGAUC [JL EXNG3 1.31] (Eterna round: R96, puzzle: Exclusion NG 3) |  |  |  |  |  | 138 nM
UUUAAUUUUUUUUUUUUACAAGCUUUUUGCUCGUCUUAUACAUGAGGAUCACCCAUGUGGGUAGAAAGUAAAUUAUC [JMF 46] (puzzle: Sensor v3, turn-off variant 2) | 43.6 nM |  |  | 13.7 nM | 15.4 nM | 
GCCUCACAUGAGGAUCACCCAUGUCAGGAUAUCUAAGGCGAAGUGCAAGCACCUCGUGAGAGAAGGGACGUCAA [Dienononen] (puzzle: Exclusion 1) | 20.9 nM |  |  |  |  | 
CGCUAGUCAGGAUAUACGAACAUGUCAAAAGACGUGAAGGGACAUGAGGAUCACCCAUGUAGAAGGGACUAGCC [salish99_ex2_r3_011] (puzzle: Exclusion 2) | 21.3 nM |  |  | 111 nM | 25.8 nM | 
GAUCCUUCUGUUAGGAUAUGCAACGGGCUUCCGCAGCAGAAGGAACAUGAGGAUCACCCAUGUCAAAUAAAAUC [JL-BMX4-4.36 ViennaUCT mod] (Eterna round: R97, puzzle: Brourd's mod of Exclusion 4) |  | 54.1 nM | 18.7 nM |  |  | 
GGUGCGUAUGUGAGGAUAUGCUGGUCCUUGGAUCGGCAGAAGGCACAUGAGGAUCACCCAUGUGGUGUCGUACC [salish99_Bmod_Ex4_023] (puzzle: Brourd's mod of Exclusion 4) | 165 nM |  |  |  |  | 
UUUACAAGCUAUAGAUCCCACAUGAGGAUCACCCAUGUUCCUGGCCGUGAGGCUAGGUAAACUAUUGCUCGUCUUAU [JL TOV1 3.66] (Eterna round: R97, puzzle: Sensor, turn-off variant 1) |  | 252 nM | 294 nM |  |  | 
UUGUGCACGCUGCGAUCCUACAUGAGGAUCACCCAUGUGGUCUGGUGGCGUGGGUCACCGGACUUGGCUCGUCUUGC [salish99_S_TOV1_R5_073] (Eterna round: R97, puzzle: Sensor, turn-off variant 1) |  | 28.8 nM | 28.6 nM |  |  | 
AUAAUGUGAGGAUAUCAGUCGACUAGCUUCGGCUAGUCGACUGAGAAGGUACAUGAGGAUCACCCAUGUAGAUC [E4/20-A1] (Eterna round: R97, puzzle: Exclusion 4) |  | 59.9 nM | 40.9 nM |  |  | 
CUCUAGUCAGGAUAUUAGUUGCCGCCUGGCAACAGGCGGCAUGAGAAGGGACUUGAGGAUCACCCAAGUAAAAG [Rabebete] (Eterna round: R97, puzzle: Exclusion 4) |  | 66.1 nM | 368 nM |  |  | 

Sequence | apparent KD of MS2 coat protein [1] | apparent KD of MS2 coat protein (input ligand: FMN 200 uM) | apparent KD of MS2 coat protein (input ligand: none) | apparent KD of MS2 coat protein [2] | apparent KD of MS2 coat protein [3] | apparent KD of MS2 coat protein [4]
AUUAUAUAGACAGGAUAUUGAUUAUUAUUUUAACAUGAGGAUCACCCAUGUAGCCUUAUGUAUAGCAAGAAGGGUCAUUUAUUA [Title] (Eterna round: R96, puzzle: Exclusion NG 2) |  |  |  |  |  | 122 nM
AAGAAACAUGAGGAUCACCCAUGUGAGGAUAUGAGGAAGAAAAGAAAAGAAAGAAGAUUCAGAAGGCACAAAGG [salish99-ex1_r3_058] (puzzle: Exclusion 1) | 35.1 nM |  |  | 96.3 nM | 59.1 nM | 
AAGAAUUUAUAGGAUAUCGAAAGUAUAAUUUAACGAGAAGGAUGAACAUGAGGAUCACCCAUGUGGUAUCAUGG [JL-ex6-3.09] (puzzle: Exclusion 6) | 232 nM |  |  | 145 nM | 304 nM | 
GUGGUACAUGAGGAUCACCCAUGUUAGGAUAUCGCGUGAGGUUUUACUUCCGCGCGCGCGAGAAGGGACGUCUU (puzzle: Exclusion 1) | 23.3 nM |  |  |  |  | 
UUCCAACGAGGAUAUCGAUGGUGGAACAUGAGGAUCACCCAUGUAUGAGAUAGUGUAGUUCGAGAAGGCGUUCAGU [JR_E5_Sub055] (puzzle: Exclusion 5) | 41.9 nM |  |  |  |  | 
UUUUAACAUGAGGAUCACCCAUGUGAGGAUAUCGAAAUUUAUAUUAAUAUUUAUUAUACGAGAAGGCACAUUUU [JMF 62] (puzzle: Exclusion 1) | 77.5 nM |  |  |  |  | 
UUCGUGCUGCUUUGCUGUACGAGUACAUGAGGAUCACCCAUGUAGGAUAUGGUACGCUUUGCGUGCUAGAAGGAUAUGUGUUGC [salish99_ExNG3_r04_506] (Eterna round: R96, puzzle: Exclusion NG 3) |  | 24.6 nM | 24 nM |  |  | 16.9 nM
ACAUGAGGAUCACCCAUGUGAAACCAAUGGCUGACUUUGAGACAGGAUAUUCGUGCAUAUCAAACGAAGAAGGGUCAUUACUGG [Deportation 95 - Jieux - Exclusion NG 3] (Eterna round: R96, puzzle: Exclusion NG 3) |  | 56.8 nM | 46.8 nM |  |  | 41.1 nM
AAAAGGUGAGGAUAUACAAUGAUCCUCAUAAUAACCCGAAGACAUGAGGAUCACCCAUGUAGAAGGCACAAAUA [Istive] (puzzle: Exclusion 2) | 16.5 nM |  |  | 33.4 nM | 19.8 nM | 
UCUAGUUGGUAAGGAUAUCCUACAUUGUUCUGGCCCGGGCAUGCUACAUGAGGAUCACCCAUGUGGGAGAAGGUGCGUCAUUGC [Design 21] (Eterna round: R96, puzzle: Exclusion NG 2) |  | 44.6 nM | 61.9 nM |  |  | 32.2 nM
AAGUAGUCUGUGAGGAUAUUGGUGGAAUGACACAUUAAGAAGGUACAUGAGGAUCACCCAUGUGGGUAAAGACG [Brourd's EX4 #24] (Eterna round: R97, puzzle: Brourd's mod of Exclusion 4) |  | 115 nM | 109 nM |  |  | 
ACAUGAGGAUCACCCAUGUAAUCAUGAUGGCUGAUGUAGAGUCAGGAUAUGUGUGGCUUUCUAUCACAGAAGGGACAAGACUGG [Deportation 36 - Jieux - Exclusion NG 3] (Eterna round: R96, puzzle: Exclusion NG 3) |  | 42.9 nM | 34.9 nM |  |  | 26.2 nM
GCAGAAUGAGUUAGGAUAUGAUGAUUAUUCGGAAAUCAGAAGGAACUUGAGGAUCACCCAAGUAAAGAUAGGGU [JR_BMEx4_Sub063] (Eterna round: R97, puzzle: Brourd's mod of Exclusion 4) |  | 361 nM | 221 nM |  |  | 
UGAGGACAUGAGGAUCACCCAUGUAAGGAUAUGCGGAGAGUUUGGAGAGGUUGAGGAGGCAGAAGGUACGGGAU [JR_Exclu1_Sub046] (Eterna round: R96, puzzle: Exclusion 1) |  | 144 nM | 103 nM |  |  | 47.4 nM
UGAUUGUUUACCAGAUUAUACAUGAGGAUCACCCAUGUAGAUCCUACGUGCACGUUAUACCGCUCGUCUUAUUCCCA [Sensor-V1 #75] (Eterna round: R97, puzzle: Sensor, turn-off variant 1) |  | 44.6 nM | 41.2 nM |  |  | 
GUAGAGUCAGGAUAUACGAGAUCGAAAGAUCGGCGAUCCAUACAUGAGGAUCACCCAUGUAGAAGGGACUCUAC [ChP 11-04-2015 #5] (Eterna round: R96, puzzle: Exclusion 2) |  | 177 nM | 19.1 nM |  |  | 14.8 nM
UGAGGACAUGAGGAUCACCCAUGUAAGGAUAUGCGGAGAGUUUGGAGAGGUUGAGGAGGCAGAAGGUACGGGAU [JR_Exclu1_Sub046] (puzzle: Exclusion 1) | 102 nM |  |  |  |  | 
